Measured values from patent US20210163947.

System: pdt-tagged sfGFP

Substance: mf-Lon
- signal decay of pdt-tagged sfGFP (protein degradation) on mixing extracts: Increasing the concentration of mf-Lon and supplying additional ATP (a co-substrate for the reaction) results in some signal decay
